Patent publication US20170252403A1, “METHODS AND COMPOSITIONS FOR TREATING RETINAL DISORDERS” (AMARANTUS BIOSCIENCE HOLDINGS, INC., priority 2014, published 2017)
Where “and” joins values, the source holds several entries; their conditions need not be identical. Equal values may be shown once. Entries after “also recorded” stand apart in the source; their conditions may differ. Read-outs that look alike come from different tables or passages of the source.

Key:
[1] = test system: eyes of pigmented rabbits; assay: 15-day ocular tolerance study after single intravitreal administration; assay type: in vivo, pigmented rabbit; conditions: MANF 3 mg/mL, 100 μL single intravitreal
Description: Ten female pigmented rabbits were divided into two groups of five animals each, corresponding to both treatments.
The eyes of the animals were examined by Split-lamp and assessed by using the McDonald-Shadduck's scale at Baseline and at Days 1, 3, 8 and 15. At the end of the in-life period on Day 15 both eyeballs of all animals were collected and processed for histology and microscopic examination.

[2] = test system: retinal ganglion cells (RGC); assay: Retinal ganglion cell survival (Brn3a immunohistochemistry on flat-mounted retinas) after retinal ischemia; conditions: for Alive cells (BrN3A positive) in right eye, group Mean / Alive cells (BrN3A positive) in right eye, individual mean cells/mm^2: right injured eye; for Alive cells (BrN3A positive) in right eye, group Mean / Alive cells (BrN3A positive) in right eye, individual mean cells/mm^2 / RGC density, alive cells (BrN3A positive) in right eye: 7 days after ischemia; for Alive cells (BrN3A positive) in right eye, individual mean cells/mm^2: individual rats; for RGC density, alive cells (BrN3A positive) in right eye: 4 μL intravitreal once after reperfusion; for Alive cells (BrN3A positive) in right eye, group Mean / RGC density, alive cells (BrN3A positive) in right eye: group mean;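 on all read-outs here: sprague Dawley rats, right optic nerve vessels clamped 45 min then reperfused, Brn3a-stained RGC counted on flat-mounted retinas in cells/mm^2, 8 fields per retina, uninjured left eyes as naive controls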
Protocol: (§1) In this Example, retinal ischemia was induced by transient vascular clamping of the optic nerve in the right eyes of Sprague Dawley albino rats for 45 min. Reperfusion was initiated by the release of the clamp. Retinal function was evaluated by ERG at baseline and 7 days after ischemia. RGC survival was assessed by immunohistochemistry 7 days after ischemia.
(§2) Retinal ischemia was induced by vascular clamping of the optic nerve in the right eyes for 45 min. Reperfusion was initiated by the release of the clamp. Retinal function was evaluated by electroretinography (ERG) at baseline and 7 days after ischemia. Retinal Ganglion Cell (RGC) survival was assessed by immunohistology 7 days after ischemia.
To assess the effect of the treatment on RGC viability, the RGC density was evaluated 7 days after ischemia by immunohistochemistry with a stain for the RGC specific marker Brn3a.
After euthanasia, the right eyeballs were fixed in Formalin 4% (24 h at 4° C.), dissected and retinas were flat mounted. Two left eyes retinas per group were sampled and processed the same as the right eye retinas. They served as naïve controls. The flat mounted preparations were stained with an Alexa 594 conjugated anti-BRN3A (Brain-specific hoeobox/POU domain protein 3A, Chemicon, cat #mAb1585) to label RGC. Fluorescence images were recorded with Apotome microscope at magnification ×10 (Zeiss). RGC were counted with Image J software in 8 locations for each retina area (2 pictures per quarter). The cell count was reported in cell/mm^2.

[3] = test system: primary mixed cortical/hippocampal neuronal cultures; conditions: cultures exposed to the ER stressor tunicamycin; cited from earlier work
[4] = test system: retinal function after transient retinal ischemia (optic nerve clamping); assay: Electroretinography (ERG a-wave/b-wave amplitude) after retinal ischemia by optic nerve clamping
Protocol: as §1, §2
The functional status of the retina was evaluated by electroretinography one week after the ischemic insult and compared to baseline values determined just prior to optic nerve ischemia. The b-wave is induced by potassium efflux shunted from activated bipolar cells by Müller cells and is an electrophysiological indicator of inner retinal signal transmission. The ERG parameters applied were the following: Color: white maximum; Maximum intensity: 2.6 cd·s/m2 (0 dB); Duration 0.24 ms; Numbers of flashes: 1; Filter: 50 Hz; Impedance threshold: 90 kΩ.
Test and control items were injected intravitreally (4 μL) in right eye from anesthetized rat using a mix of xylazine/ketamine and a 30-G needle mounted on a syringe, immediately after reperfusion.
Reference item was intraperitoneally dosed using a 0.5 mL/kg volume of administration, 30 min before induction.
Right eyes underwent a temporal orbitectomy combined with periorbital stripping. The globe remained in the orbit and was completely isolated on a pedicle consisting of the optic nerve, ophthamociliary arteries and the venous outflow. A clamp placed around the pedicle initiated the global ocular ischemia when tightened.
Ischemia was maintained for 45 minutes. The reperfusion period was initiated by the release of the clamp.
ERG was recorded before ischemia (baseline) and 7 days after reperfusion in both eyes. The a-wave and b-wave amplitudes (μV) were measured for each ERG; the a-wave and b-wave amplitudes as a percentage of the baseline values obtained before ischemia. […] Mydriaticum (0.5% tropicamide) were instilled for pupillary dilatation.
ERG parameters: • Color: white maximum. • Maximum intensity: 2.6 cd·s/m2 (0 dB); Duration 0.24 ms; number of flash: 1. • Filter: 50 Hz. • Impedance Threshold: 90 kΩ.

[5] = test system: ischemia of the brain (tMCAO); conditions: cited from earlier work
[6] = General behavior and body weight in the rat retinal ischemia study; conditions: for Body weight, sacrifice day, mean: Day 7, group mean
Protocol: The body weight of all animals was recorded before the start of the study, on Day 0 and at the end of the study (Day 7).
Each day, the general behavior and the aspect of all animals were observed.

[7] = MANF 1.5 mg/mL intravitreal, treated right (ischemic) eye, individual rats

B1: mesencephalic astrocyte-derived neurotrophic factor (protein)
chain: GRFYQDLKDRDVTFSPATIENELIKFCREARGKENRLCYYIGATDDAATKIINEVSKPLAHHIPVEKICEKLKKKDSQICELKYDKQIDLSTVDTKKLRVKELKKILDDWGETCKGCAEKSDYIRKINELMPKYAPKAASARTDL
Effects on body weight, clinical observations or ophthalmic examinations ([1]; right eye, 15 days, McDonald-Shadduck scale): no treatment- or administration-related effects | Ocular tolerance ([1]; 15 days): macroscopically and microscopically well tolerated | Histopathology evaluation of the eyes ([1]; Day 15): No pathological findings related to treatment | Alive cells (BrN3A positive) in right eye, group Mean ([2]; MANF 0.15 mg/mL intravitreal): 402.8 cells/mm^2 | Alive cells (BrN3A positive) in right eye, individual mean cells/mm^2 ([2]; MANF 0.15 mg/mL intravitreal): 469 cells/mm^2 and 722 cells/mm^2 and 636 cells/mm^2 and 471 cells/mm^2 and 456 cells/mm^2 and 374 cells/mm^2 and 161 cells/mm^2 and 432 cells/mm^2 and 408 cells/mm^2 and 448 cells/mm^2 and 47 cells/mm^2 and 210 cells/mm^2 | RGC density, alive cells (BrN3A positive) in right eye ([2]; MANF 0.15 mg/mL): 403±189 cells/mm^2 and 402.8 cells/mm^2 | Alive cells (BrN3A positive) in right eye, group Mean ([2]; MANF 0.5 mg/mL intravitreal): 464.9 cells/mm^2 | Alive cells (BrN3A positive) in right eye, individual mean cells/mm^2 ([2]; MANF 0.5 mg/mL intravitreal): 512 cells/mm^2 and 443 cells/mm^2 and 613 cells/mm^2 and 364 cells/mm^2 and 379 cells/mm^2 and 549 cells/mm^2 and 336 cells/mm^2 and 97 cells/mm^2 and 249 cells/mm^2 and 1209 cells/mm^2 and 105 cells/mm^2 and 724 cells/mm^2 | RGC density, alive cells (BrN3A positive) in right eye ([2]; MANF 0.5 mg/mL): 465±301 cells/mm^2 and 464.9 cells/mm^2 | Alive cells (BrN3A positive) in right eye, group Mean ([2]; MANF 1.5 mg/mL intravitreal): 487.7 cells/mm^2 | Alive cells (BrN3A positive) in right eye, individual mean cells/mm^2 ([2]; MANF 1.5 mg/mL intravitreal): 546 cells/mm^2 and 378 cells/mm^2 and 549 cells/mm^2 and 723 cells/mm^2 and 536 cells/mm^2 and 974 cells/mm^2 and 197 cells/mm^2 and 543 cells/mm^2 and 488 cells/mm^2 and 260 cells/mm^2 and 342 cells/mm^2 and 316 cells/mm^2 | RGC density, alive cells (BrN3A positive) in right eye ([2]; MANF 1.5 mg/mL): 488±214 cells/mm^2 and 488±14 cells/mm^2 and 487.7 cells/mm^2 | Protection of RGC, in words ([2]; single intravitreal MANF at 0.15, 0.5 and 1.5 mg/mL, one-week reperfusion): a trend in protecting RGCs; also recorded: protecting RGC | Protection against tunicamycin (TUNEL-positive cells as marker of apoptosis) [3]: fully protected | A-wave amplitude (μV), treated right eye ([4]; MANF 0.5 mg/mL intravitreal, Day 7, group mean): −268.9 μV | A-wave Amplitude (μV) Day 7 [4, 7]: −254 μV and −299 μV and −255 μV | B-wave Amplitude (μV) Day 7 [4, 7]: 426 μV and 456 μV | Reduction of infarct size ([5]; MANF expressed in the cortex using an AAV-based vector): 40% | Reduction of infarct size ([5]; day 2, compared to vehicle treated animals): 50% | Body weight, sacrifice day, mean ([6]; MANF 0.15 mg/mL intravitreal): 343 g | Body weight, sacrifice day, mean ([6]; MANF 0.5 mg/mL intravitreal): 345 g | Body weight, sacrifice day, mean ([6]; MANF 1.5 mg/mL intravitreal): 347 g | General behavior and appearance ([6]; daily observation during the study period, regardless the dose): not altered
